Measured values reported in patent publication US20060217306A1, “Systemic treatment of infections with defensins” (Novozymes A/S, priority 2005, published 2006).
Values joined by “and” are separate entries in the source; they are usually repeats but may differ in a detail not shown here. Identical values can stand only once. No end group written: not given here.

Assays:
[1] = system: S. pneumoniae D39; assay: Survival after peritoneal infection with S. pneumoniae D39; format: in vivo; details: groups of eight mice, vehicle 0/8
Description: (§1) Three different pneumococcal strains were employed in this study (6A, D39 and 68034). Three mice per sampling point were inoculated with a specific S. pneumoniae i.p., and were treated 1 hour later with a single dose of 10 mg/kg Plectasin. Peritoneal wash was sampled for microbial counts prior to treatment (T=0), and at T=2 and T=5 hrs after. The colony counts are listed below for all three strains.
Treatment with Plectasin s.c. 10 mg/kg was initiated one hour after inoculation as described in Example 4A above. The following dosing regimens were investigated in groups of eight mice: vehicle treated, Plectasin once daily (OD) for one day, twice daily (BID) for one day or BID for two days. […] The survival fraction of the vehicle treated control group was 0/8 mice (P<0.0002).

[2] = Single dose intravenous toxicity study in the mouse / maximum tolerable dose; format: in vivo; details: 125 mg/kg single i.v. dose
Description: The study, to determine the maximum tolerable dose in mice, should be initiated with a sighting study to select the appropriate dose level for the main study. For example, six dose levels could be investigated using one male and one female mouse at each dose level.
On the basis of any signs of toxicity, the selected dose is administered to five male and five female mice as a single intravenous dose in a dose volume of 10 ml/kg. The dose should be administered slowly in the tail vein (e.g., 20 seconds per injection using a 1 ml syringe with a 25G hypodermic needle). All animals should be observed for any signs of toxicity after 15 minutes, 1 hour, 3 hours, 6 hours and 24 hours after administration.
A single intravenous dose was administered slowly in the tail vein (20 seconds per injection) using a 1 ml syringe with a 25G hypodermic needle to 5 male and 5 female mice. […] Body weight was recorded on Day 1, 2, 8 and 15. At termination of the study gross necropsy examination of all animals was carried out.

[3] = system: S. pneumoniae strain D39; assay: Treatment of pneumococcal peritoneal infection, colony counts in peritoneal wash, strain D39; format: in vivo, mice; details: for Colony counts: strain D39, peritoneal wash, individual mice
Description: as §1

[4] = system: S. pneumoniae strain D39; assay: Treatment of pneumococcal pneumonia, colony counts in lung homogenates; format: in vivo, mice; details: for Colony counts in lung homogenates: one day after treatment, individual mice
Description: Six to seven mice per sampling point (12 in the no-treatment group) were inoculated with S. pneumoniae (data only shown for strain D39) via the nasopharynx, and 24 hrs later the animals received Plectasin 10 mg/kg or penicillin 30 mg/kg.

[5] = Systemic availability: in vivo kinetics, serum concentration by LCMSMS; design: species or system NMRI female mice; details: for Serum concentration: 14 mg/kg single dose, individual mice; for Maximum observed mean concentration / Time of maximum observed mean concentration: serum
Description: The in vivo kinetics of plectasin was investigated in NMRI female mice, 25-30 gram (Harlan Scandinavia Aps), after a single 14 mg/kg dose, administered by either intravenous, subcutaneous or intraperitoneal routes. Plectasin concentrations in serum samples were determined 5, 15, 30, 60, 120 and 180 minutes after dosing, using two mice at each time point. At each time point, urine was collected, then mice were anaesthetized with CO2 and blood collected. The blood samples were centrifuged and serum collected. The concentration of plectasin in serum and urine were determined by LCMSMS.
The maximum observed mean concentrations for i.v., s.c. and i.p. dosing were: 95 mg/L after 5 min., 55 and 34 mg/L after 30 min., respectively.

[6] = system: S. pneumoniae strain 6A; assay: Treatment of pneumococcal peritoneal infection, colony counts in peritoneal wash, strain 6A; format: in vivo, mice; details: for Colony counts: peritoneal wash, individual mice
Description: as §1

[7] = system: S. pneumoniae strain 68034; assay: Treatment of pneumococcal peritoneal infection, colony counts in peritoneal wash, strain 68034; format: in vivo, mice; details: for Colony counts: strain 68034, peritoneal wash, individual mice
Description: as §1

[8] = Stability in human serum; residual activity by radial diffusion assay with Staphylococcus carnosus; format: in vitro ADME; details: 37° C.; for Activity (%) 10% serum / Activity (%) 90% serum: 100 mg/L; for Activity (%) 10% serum: 10% human serum; for Activity (%) 90% serum: 90% human serum
Description: To assess the stability of the defensins in human serum, according to the invention, a solution of 100 mg/L of a defensin in fresh normal human serum is incubated at 37 degrees Celsius for 0, 1, 3, 6 and 24 hours. Residual activity is measured by performing radial diffusion assays with a sensitive indicator organism (e.g., Staphylococcus carnosus or E. coli); by performing a quantification by HPLC, LCMSMS; or by performing various ELISA techniques well known to a person skilled in the art.
To assess serum stability, Plectasin (100 mg/L) was incubated at 37° C. in 10% and 90% fresh normal human serum for 0, 1, 3, 6 & 24 hours. Residual activities were measured by performing radial diffusion assays with Staphylococcus carnosus.

[9] = system: S. pneumoniae 68034; assay: Survival after peritoneal infection with S. pneumoniae 68034; format: in vivo; details: s.c. 10 mg/kg BID for one or two days, groups of eight mice; vehicle 0/8, P<0.0002
Description: as §1
Treatment with Plectasin s.c. 10 mg/kg was initiated one hour after inoculation as described in Example 4A above. The following dosing regimens were investigated in groups of eight mice: vehicle treatment, Plectasin BID for one or two days. The survival fraction at seven days post-infection was 6/8 for Plectasin treated mice and 0/8 for vehicle treated mice (P<0.0002).

[10] = 2 hours after single dose 10 mg/kg, 10 mg/kg
[11] = 5 hours after single dose 10 mg/kg, 10 mg/kg

Plectasin: Defensin shown as amino acids 1 to 40 of SEQ ID NO: 2 in international patent application WO 03/044049; defensin antimicrobial peptide (GFGCNGPWDEDDMQCHNHCKSIKGYKGGYCAKGGFVCKCY; ends and bridges not checked; cysteine pairing not given here; UniProt Q53I06 56-95, looked up)
Survival over the 7-day study period ([1]; s.c. 10 mg/kg BID for two days): All mice treated with Plectasin survived | Survival over the 7-day study period ([1]; s.c. 10 mg/kg once daily (OD) for one day): All mice treated with Plectasin survived | Survival over the 7-day study period ([1]; s.c. 10 mg/kg twice daily (BID) for one day): except for one mouse | Finding at the injection site ([2]; 10 ml/kg, 15 minutes after treatment, 5 male and 5 female mice): all animals had a discoloration at the injection site | Other signs of toxicity ([2]; 10 ml/kg, observed over 14 days): No other signs of toxicity were observed | Gross necropsy ([2]; at termination of the study): no abnormalities | Colony counts compared to vehicle treated mice ([3]; strain D39, 10 mg/kg, P<0.0001): significant lower | Colony counts ([3]; 0 hours (prior to treatment)): 3.25E6 and 1.8E6 (2×) | Colony counts [3, 10]: 2.75E4 and 1.1E4 and 2E4 | Colony counts [3, 11]: 2.5E2 and 3.5E2 and 1E2 | Colony counts compared to no treatment ([4]; strain D39, 10 mg/kg): significant reduction | Colony counts in lung homogenates ([4]; strain D39, 10 mg/kg given 24 hrs after inoculation): 3E1 (2×) and 5.25E3 and 6.75E2 and 9.75E4 and 2.25E3 and 1.5E2 | Terminal half-life ([5]; 14 mg/kg, mice, estimated): 49 to 54 min | Serum concentration ([5]; IP, 5 min, 14 mg/kg): 9400 ng/mL and 7200 ng/mL | Serum concentration ([5]; IP, 15 min, 14 mg/kg): 26000 ng/mL and 31600 ng/mL | Serum concentration ([5]; IP, 30 min, 14 mg/kg): 32500 ng/mL and 35400 ng/mL | Serum concentration ([5]; IP, 60 min, 14 mg/kg): 27700 ng/mL and 14300 ng/mL | Serum concentration ([5]; IP, 120 min, 14 mg/kg): 10900 ng/mL and 20300 ng/mL | Serum concentration ([5]; IP, 180 min, 14 mg/kg): 2600 ng/mL and 5600 ng/mL | Serum concentration ([5]; IV, 5 min, 14 mg/kg): 92100 ng/mL and 97900 ng/mL | Serum concentration ([5]; IV, 15 min, 14 mg/kg): 58800 ng/mL and 58100 ng/mL | Serum concentration ([5]; IV, 30 min, 14 mg/kg): 35700 ng/mL and 27300 ng/mL | Serum concentration ([5]; IV, 60 min, 14 mg/kg): 14900 ng/mL and 15600 ng/mL | Serum concentration ([5]; IV, 120 min, 14 mg/kg): 5300 ng/mL and 4900 ng/mL | Serum concentration ([5]; IV, 180 min, 14 mg/kg): 2300 ng/mL and 3500 ng/mL | Serum concentration ([5]; SC, 5 min, 14 mg/kg): 20300 ng/mL and 25400 ng/mL | Serum concentration ([5]; SC, 15 min, 14 mg/kg): 49400 ng/mL and 56600 ng/mL | Serum concentration ([5]; SC, 30 min, 14 mg/kg): 50300 ng/mL and 60000 ng/mL | Serum concentration ([5]; SC, 60 min, 14 mg/kg): 24800 ng/mL and 27200 ng/mL | Serum concentration ([5]; SC, 120 min): 29800 ng/mL | Serum concentration ([5]; SC, 180 min, 14 mg/kg): 4600 ng/mL and 7200 ng/mL | Maximum observed mean concentration ([5]; i.p., 14 mg/kg): 34 mg/L | Time of maximum observed mean concentration ([5]; i.p., 14 mg/kg): 30 min | Concentration-time behavior ([5]; i.v. bolus administration, WinNonlin): two-compartment behavior | Maximum observed mean concentration ([5]; i.v., 14 mg/kg): 95 mg/L | Time of maximum observed mean concentration ([5]; i.v., 14 mg/kg): 5 min | Maximum observed mean concentration ([5]; s.c., 14 mg/kg): 55 mg/L | Time of maximum observed mean concentration ([5]; s.c., 14 mg/kg): 30 min | Colony counts compared to vehicle treated mice ([6]; 10 mg/kg, P<0.0001): significant lower | Colony counts ([6]; 0 hours (prior to treatment)): 1.1E6 and 1.55E6 and 1E6 | Colony counts [6, 10]: 3.5E5 (2×) and 1.78E5 | Colony counts [6, 11]: 2.13E4 and 1.43E3 and 1.45E3 | Colony counts compared to vehicle treated mice ([7]; strain 68034, 10 mg/kg, P<0.0001): significant lower | Colony counts ([7]; 0 hours (prior to treatment)): 3E5 and 5.5E5 and 3.5E5 | Colony counts [7, 10]: 3.25E4 (2×) and 1.5E4 | Colony counts [7, 11]: 4E2 and 1E2 and 7.5E1 | Activity (%) 10% serum ([8]; 0 hours): 100% | Activity (%) 10% serum ([8]; 1 hour): ˜100% | Activity (%) 10% serum ([8]; 3 hours): ˜100% | Activity (%) 10% serum ([8]; 6 hours): ˜100% | Activity (%) 10% serum ([8]; 24 hours): ˜100% | Activity (%) 90% serum ([8]; 0 hours): 100% | Activity (%) 90% serum ([8]; 1 hour): ˜100% | Activity (%) 90% serum ([8]; 3 hours): ˜100% | Activity (%) 90% serum ([8]; 6 hours): ˜100% | Activity (%) 90% serum ([8]; 24 hours): ˜100% | Residual activity (in words) ([8]; after 24 hours of incubation in 90% human serum): Full activity was retained | Survival fraction at seven days post-infection [9]: 6/8

penicillin [reference compound]
Colony counts compared to no treatment ([4]; strain D39, 30 mg/kg): significant reduction | Colony counts in lung homogenates ([4]; strain D39, 30 mg/kg given 24 hrs after inoculation): 7.5E1 (3×) and 4.5E3 and 2.25E4 and 4.89E5
